B1: U3 small nucleolar RNA-associated protein 14 homolog C (Homo sapiens), Q5TAP6 (parent)
chain: MNVNQVAENLALSHQEELVDLPKNYPLSENEDEGDSDGERKHQKLLEAIISLDGKNRRKLAERSEASLKVSEFSVSSEGSGEKLGLADLLEPVKTSSSLATVKKQLNRVKSKKVVELPLNKEKIEQIHREVAFSKTSQVLSKWDPIILKNQQAEQLVFPLGKEQPAIAPIEHALSGWKARTPLEQEIFNLLHKNKQPVTDPLLTPMEKASLQAMSLEEAKMHRAELQRARALQSYYEAKARKEKKIKSKKYHKVVKKGKAKKALKEFEQLQKVNPTVALEEMEKIENARMMERMSLKHQNSGKWAKSKAIMAKYDLEARQAMQEQLAKNKELTQKLQVASESEEEEGGTEVEELLVPHVANEVQMNVDGPNPWMFRSCTSDTKEAATQEDPEQVPELAAHEVSASEAEERPVAEEEILLREFEERQSLRKRSELNQDAEPASSQETKDSSSQEVLSELRALSQKLKEKHQSRKQKASSEGTVPQVQREEPAPEEAEPLLLQRSERVQTLEELEELGKEDCFQNKELPRPVLEGQQSERTPNNRPDAPKEKKEKEQLINLQNFLTTQSPSVRSLAVPTIIEELEDEEERDQRQMIKEAFAGDDVIRDFLKEKREAVEASKPKDVDLTLPGWGEWGGVGLKPSAKKRRQFLIKAPEGPPRKDKNLPNVIISEKRNIHAAAHQVQVLPYPFTHHRQFERTIQTPIGSTWNTQRAFQKLTTPKVVTKPGHIIKPIKAEDVGYQSSSRSDLPVIQRNPKRITTRHNKEEKL
partner: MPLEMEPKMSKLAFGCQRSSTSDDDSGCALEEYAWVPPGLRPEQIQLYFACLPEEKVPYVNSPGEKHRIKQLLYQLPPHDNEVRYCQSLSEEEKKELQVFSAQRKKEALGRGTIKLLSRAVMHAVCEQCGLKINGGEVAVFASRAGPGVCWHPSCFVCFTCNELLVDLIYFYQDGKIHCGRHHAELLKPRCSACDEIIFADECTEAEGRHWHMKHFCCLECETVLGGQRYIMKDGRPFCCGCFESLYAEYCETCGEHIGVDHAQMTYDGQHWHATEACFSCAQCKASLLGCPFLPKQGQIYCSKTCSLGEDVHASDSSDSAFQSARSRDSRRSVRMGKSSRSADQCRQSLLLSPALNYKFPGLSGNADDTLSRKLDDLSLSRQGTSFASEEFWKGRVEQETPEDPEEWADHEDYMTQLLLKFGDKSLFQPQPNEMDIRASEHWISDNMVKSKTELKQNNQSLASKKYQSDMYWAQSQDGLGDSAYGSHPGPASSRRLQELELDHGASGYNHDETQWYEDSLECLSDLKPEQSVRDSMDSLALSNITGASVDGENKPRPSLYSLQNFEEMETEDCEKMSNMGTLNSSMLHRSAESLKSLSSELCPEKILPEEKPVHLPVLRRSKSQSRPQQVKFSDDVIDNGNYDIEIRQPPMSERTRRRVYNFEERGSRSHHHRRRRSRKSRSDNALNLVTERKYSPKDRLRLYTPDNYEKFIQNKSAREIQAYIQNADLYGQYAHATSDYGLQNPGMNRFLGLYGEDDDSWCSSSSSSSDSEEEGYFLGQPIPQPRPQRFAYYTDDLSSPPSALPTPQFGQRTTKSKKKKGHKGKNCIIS
B2: Copper homeostasis protein cutC homolog (Homo sapiens), Q9NTM9 (parent)
chain: MKRQGASSERKRARIPSGKAGAANGFLMEVCVDSVESAVNAERGGADRIELCSGLSEGGTTPSMGVLQVVKQSVQIPVFVMIRPRGGDFLYSDREIEVMKADIRLAKLYGADGLVFGALTEDGHIDKELCMSLMAICRPLPVTFHRAFDMVHDPMAALETLLTLGFERVLTSGCDSSALEGLPLIKRLIEQAKGRIVVMPGGGITDRNLQRILEGSGATEFHCSARSTRDSGMKFRNSSVAMGASLSCSEYSLKVTDVTKVRTLNAIAKNILV
partner: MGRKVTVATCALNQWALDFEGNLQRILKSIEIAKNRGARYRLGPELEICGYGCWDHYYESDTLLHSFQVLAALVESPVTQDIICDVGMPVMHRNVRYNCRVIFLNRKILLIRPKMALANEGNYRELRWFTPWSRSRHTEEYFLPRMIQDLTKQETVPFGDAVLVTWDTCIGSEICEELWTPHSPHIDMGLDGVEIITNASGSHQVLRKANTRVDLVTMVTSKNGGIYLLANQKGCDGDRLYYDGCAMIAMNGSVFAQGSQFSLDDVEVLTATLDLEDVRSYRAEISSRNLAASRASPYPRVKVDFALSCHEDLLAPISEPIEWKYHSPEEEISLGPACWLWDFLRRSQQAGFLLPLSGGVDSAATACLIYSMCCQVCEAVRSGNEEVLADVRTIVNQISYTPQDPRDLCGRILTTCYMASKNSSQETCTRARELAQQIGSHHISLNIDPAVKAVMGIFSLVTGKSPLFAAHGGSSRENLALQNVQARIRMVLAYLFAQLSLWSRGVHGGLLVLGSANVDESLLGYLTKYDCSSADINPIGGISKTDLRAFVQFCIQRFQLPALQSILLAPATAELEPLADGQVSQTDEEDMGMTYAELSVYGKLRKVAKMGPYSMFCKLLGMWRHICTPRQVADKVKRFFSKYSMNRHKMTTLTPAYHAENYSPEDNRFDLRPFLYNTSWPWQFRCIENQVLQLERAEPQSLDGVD
B3: Microtubule-associated tumor suppressor candidate 2 (Homo sapiens), Q5JR59-3 (parent)
chain: MGHCCCKPYNCLQCLDKTNESALVKEKELSIELANIRDEVAFHTAKCEKLQKEKEELERRFEDEVKRLGWQQQAELQELEERLQLQFEAEMARLQEEHGDQLLSIRCQHQEQVEDLTASHDAALLEMENNHTVAITILQDDHDHKVQELMSTHELEKKELEENFEKLRLSLQDQVDTLTFQSQSLRDRARRFEEALRKNTEEQLEIALAPYQHLEEDMKSLKQVLEMKNQQIHEQEKKILELEKLAEKNIILEEKIQVLQQQNEDLKARIDQNTVVTRQLSEENANLQEYVEKETQEKKRLSRTNEELLWKLQTGDPTSPIKLSPTSPVYRGSSSGPSSPARVSTTPR
partner: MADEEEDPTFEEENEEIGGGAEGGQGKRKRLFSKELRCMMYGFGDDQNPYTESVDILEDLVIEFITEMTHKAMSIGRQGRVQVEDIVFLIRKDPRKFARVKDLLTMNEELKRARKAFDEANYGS

Variants of: B1
Conditions: with pric1_human PRICKLE1, Q96MT3

Row | Variant | effect of a mutation on the interaction
1 | K247E | with no effect
2 | A652T | with no effect
3 | V109D | with no effect
4 | R672H | with no effect
5 | I170V | with no effect

Variants of: B2
Conditions: with nade_human NADSYN1, Q6IA69

Row | Variant | effect of a mutation on the interaction
6 | MKRQGASSERKRARIPSGKAGAANGFLMEVCVDSVESAVNAERGGADRIELCSGLSEGGTTPSMGVLQVVKQSVQILVFVMIRPRGGDFLYSDREIEVMKADIRLAKLYGADGLVFGALTEDGHIDKELCMSLMAICRPLPVTFHRAFDMVHDPMAALETLLTLGFERVLTSGCDSSALEGLPLIKRLIEQAKGRIVVMPGGGITDRNLQRILEGSGATEFHCSARSTRDSGMKFRNSSVAMGASLSCSEYSLKVTDVTKVRTLNAIAKNILV [P77L] | disrupting interaction strength

Variants of: B3
Conditions: with taf13_human TAF13, Q15543

Row | Variant | effect of a mutation on the interaction
7 | MGHCCCKPYNCLQCLDKTNESALVKEKELSIELANIRDEVAFHTAKCEKLQKEKEELERRFEDEVKRLGWQQQAELQELEERLQLQFEVEMARLQEEHGDQLLSIRCQHQEQVEDLTASHDAALLEMENNHTVAITILQDDHDHKVQELMSTHELEKKELEENFEKLRLSLQDQVDTLTFQSQSLRDRARRFEEALRKNTEEQLEIALAPYQHLEEDMKSLKQVLEMKNQQIHEQEKKILELEKLAEKNIILEEKIQVLQQQNEDLKARIDQNTVVTRQLSEENANLQEYVEKETQEKKRLSRTNEELLWKLQTGDPTSPIKLSPTSPVYRGSSSGPSSPARVSTTPR [A89V] | with no effect

Reference: IntAct's records for PubMed 31515488
